In article PMC4787769:

Target: mLANA DBD (Murine gammaherpesvirus 68 (MHV-68), UniProt O41974 124-314)
Assay: SAXS; linear octamer model, no DNA bending
Details: protein: recombinant; tags: GST-6xHis tag (pET49b) removed by 3C protease; chain copies: 2

B1: mLBS1-2 (dsDNA)
DNA 1: GCCATGCGCCCGCGCCTGGGGCGCCACGCGGCGCGCCCTGGAGACCCGGG
DNA 2: CCCGGGTCTCCAGGGCGCGCCGCGTGGCGCCCCAGGCGCGGGCGCATGGC
  binding result: binds
